IC50 data for 23 sequences are collected here from the Immune Epitope Database (IEDB).

A value given as a limit tells only on which side of the number the result lay.

One experiment has as its target HLA-A*02:06. In words: IEDB peptide-MHC binding, cellular MHC/competitive/fluorescence; ≥ and ≤ were set here for values at or beyond the usual limits of such assays.
Experiment [1] has as its target HLA-A*68:02. The experiment is described as above.
A further experiment addresses HLA-A*02:02. In words: IEDB peptide-MHC binding, purified MHC/competitive/radioactivity; ≥ and ≤ were set here for values at or beyond the usual limits of such assays.
For the next experiment, the target named is HLA-A*02:03. The description is as above.
A further experiment deals with HLA-A*02:01. In words: IEDB peptide-MHC binding, cellular MHC/competitive/fluorescence; ≥ and ≤ were set here for values at or beyond the usual limits of such assays.
In experiment [2] the target is HLA-A*68:02. The experiment in a line: IEDB peptide-MHC binding, purified MHC/competitive/radioactivity; ≥ and ≤ were set here for values at or beyond the usual limits of such assays.
The mark [3] stands for this setting: source organism: Influenza A virus.
The mark [4] stands for this setting: source organism: Vaccinia virus WR.
The mark [5] stands for this setting: source organism: Mammarenavirus lassaense.
[6] abbreviates: source organism: Mammarenavirus choriomeningitidis.

ALANTIEV: the IC50 with HLA-A*02:06 (setting [3]) was found to be 9.13 µM; in the experiment with HLA-A*68:02 [1] (setting [3]), 59.3 µM; with HLA-A*02:02 (setting [3]), 0.162 µM; with HLA-A*02:03 (setting [3]), 0.059 µM.

On to EMKYALINL, for which the IC50 in the experiment with HLA-A*02:01 (setting [4]) is 41.2 µM; in the experiment with HLA-A*02:06 (setting [4]) it was at least 70 µM; with HLA-A*02:02 (setting [4]), 3.06 µM; with HLA-A*02:03 (setting [4]), 0.063 µM; in the experiment with HLA-A*68:02 [2] (setting [4]), 2.47 µM.

Consider HMYRGGNGNT, for which the IC50 is 19.3 µM with HLA-A*02:01 (setting [4]); 9.87 µM with HLA-A*02:06 (setting [4]); 2.02 µM with HLA-A*02:02 (setting [4]); 0.423 µM in the experiment with HLA-A*02:03 (setting [4]); 3.25 µM in the experiment with HLA-A*68:02 [2] (setting [4]).

In the case of RVKQWVMDTL, the IC50 in the experiment with HLA-A*02:01 (setting [4]) amounted to 21.4 µM; with HLA-A*02:06 (setting [4]), 27.8 µM; in the experiment with HLA-A*02:02 (setting [4]), 3.48 µM; with HLA-A*02:03 (setting [4]) it was 0.689 µM; with HLA-A*68:02 [2] (setting [4]) it was 0.155 µM.

For the sequence RVNDLNRMPT, the IC50 with HLA-A*02:01 (setting [4]) turned out to be 7.2 µM; with HLA-A*02:06 (setting [4]), 7.72 µM; with HLA-A*02:02 (setting [4]), 1.36 µM; with HLA-A*02:03 (setting [4]), 1.44 µM; with HLA-A*68:02 [2] (setting [4]) it was 0.631 µM.

For IADIRDKYM, the IC50 with HLA-A*02:01 (setting [4]) amounted to 11.3 µM; in the experiment with HLA-A*02:06 (setting [4]), 57.8 µM; with HLA-A*02:02 (setting [4]), 0.063 µM; in the experiment with HLA-A*02:03 (setting [4]), 0.23 µM; with HLA-A*68:02 [2] (setting [4]), 3.11 µM.

For AVATTHSWI, the IC50 with HLA-A*02:01 (setting [3]) was 32.9 µM; in the experiment with HLA-A*02:06 (setting [3]), 28 µM; with HLA-A*02:02 (setting [3]) it was 0.44 µM; with HLA-A*02:03 (setting [3]) it was 0.753 µM; with HLA-A*68:02 [2] (setting [3]), 0.876 µM.

In the case of AAAKTPVIV, the IC50 was 34.7 µM with HLA-A*02:01 (setting [4]); 67.3 µM with HLA-A*02:06 (setting [4]); 1.9 µM with HLA-A*02:02 (setting [4]); 1.42 µM with HLA-A*02:03 (setting [4]); 2.02 µM with HLA-A*68:02 [2] (setting [4]).

Take ELKDLLNVT: the IC50 in the experiment with HLA-A*02:01 (setting [4]) is 51.6 µM; with HLA-A*02:06 (setting [4]), 38.5 µM; in the experiment with HLA-A*02:02 (setting [4]) it was 1.54 µM; in the experiment with HLA-A*02:03 (setting [4]), 0.209 µM; with HLA-A*68:02 [2] (setting [4]), 2.79 µM.

As for FLVIAINAM, the IC50 is at least 70 µM with HLA-A*02:06 (setting [4]) and 23.3 µM with HLA-A*68:02 [1] (setting [4]).

Regarding MLHNPTSET, the IC50 with HLA-A*02:01 (setting [4]) is 13.7 µM; in the experiment with HLA-A*02:06 (setting [4]), at least 70 µM; in the experiment with HLA-A*02:02 (setting [4]), 4.21 µM; in the experiment with HLA-A*02:03 (setting [4]), 0.184 µM; with HLA-A*68:02 [2] (setting [4]), 1.57 µM.

Turning to MTSTRTIIL, the IC50 came out at 6.47 µM in the experiment with HLA-A*02:01 (setting [4]); 6.79 µM with HLA-A*02:06 (setting [4]); 1.34 µM with HLA-A*02:02 (setting [4]); 0.84 µM with HLA-A*02:03 (setting [4]); 0.507 µM in the experiment with HLA-A*68:02 [2] (setting [4]).

Consider LNQAVNNLV, for which the IC50 turned out to be 7.96 µM with HLA-A*02:01 (setting [5]); 13.6 µM with HLA-A*02:06 (setting [5]); 0.511 µM with HLA-A*02:02 (setting [5]); 3.35 µM in the experiment with HLA-A*02:03 (setting [5]); 4.88 µM with HLA-A*68:02 [2] (setting [5]).

Regarding KVYNGIFVDT, the IC50 was 11.8 µM with HLA-A*02:01 (setting [4]); 16.4 µM in the experiment with HLA-A*02:06 (setting [4]); 0.111 µM with HLA-A*02:02 (setting [4]); 1.44 µM in the experiment with HLA-A*02:03 (setting [4]); 1.38 µM with HLA-A*68:02 [2] (setting [4]).

Consider GTSGVESAV, for which the IC50 in the experiment with HLA-A*02:01 (setting [3]) was found to be 10.8 µM; in the experiment with HLA-A*02:06 (setting [3]) it was 11.4 µM; in the experiment with HLA-A*02:02 (setting [3]), 1.1 µM; in the experiment with HLA-A*02:03 (setting [3]), 3.01 µM; with HLA-A*68:02 [2] (setting [3]), 0.683 µM.

Take DTLVKSGLT: the IC50 was at least 70 µM with HLA-A*02:01 (setting [4]); 52.9 µM with HLA-A*02:06 (setting [4]); 1.95 µM with HLA-A*02:02 (setting [4]); 2.88 µM with HLA-A*02:03 (setting [4]); 1.95 µM in the experiment with HLA-A*68:02 [2] (setting [4]).

As for IVNNFITKEI, the IC50 in the experiment with HLA-A*02:01 (setting [4]) was determined as 13.7 µM; with HLA-A*02:06 (setting [4]), 14.2 µM; with HLA-A*02:02 (setting [4]), 1.47 µM; in the experiment with HLA-A*02:03 (setting [4]) it was 0.192 µM; with HLA-A*68:02 [2] (setting [4]), 1.32 µM.

On to DTIAHINTL, for which the IC50 amounted to 10.1 µM in the experiment with HLA-A*02:01 (setting [4]); 11.1 µM with HLA-A*02:06 (setting [4]); 0.747 µM with HLA-A*02:02 (setting [4]); 0.233 µM with HLA-A*02:03 (setting [4]); 1.24 µM in the experiment with HLA-A*68:02 [2] (setting [4]).

Turning to IQKDINITHT, the IC50 with HLA-A*02:01 (setting [4]) was found to be 37.4 µM; in the experiment with HLA-A*02:06 (setting [4]), 61.7 µM; in the experiment with HLA-A*02:02 (setting [4]) it was 1.36 µM; with HLA-A*02:03 (setting [4]), 0.34 µM; with HLA-A*68:02 [2] (setting [4]), 4.99 µM.

For the sequence DVDIPTFNSL, the IC50 worked out at 18.2 µM with HLA-A*02:01 (setting [4]); 9.71 µM with HLA-A*02:06 (setting [4]); 1.81 µM with HLA-A*02:02 (setting [4]); 1.03 µM with HLA-A*02:03 (setting [4]); 3.05 µM in the experiment with HLA-A*68:02 [2] (setting [4]).

Consider LNQTVYSLV, for which the IC50 with HLA-A*02:01 (setting [6]) came out at 9.25 µM; with HLA-A*02:06 (setting [6]) it was 5.1 µM; with HLA-A*02:02 (setting [6]), 3.33 µM; in the experiment with HLA-A*02:03 (setting [6]), 1.51 µM; in the experiment with HLA-A*68:02 [2] (setting [6]) it was 0.262 µM.

On to VTSPLTGNNT, for which the IC50 with HLA-A*02:01 (setting [4]) stood at 39.5 µM; in the experiment with HLA-A*02:06 (setting [4]), 5.13 µM; with HLA-A*02:02 (setting [4]), 1.45 µM; with HLA-A*02:03 (setting [4]) it was 2.5 µM; with HLA-A*68:02 [2] (setting [4]), 0.51 µM.

As for TLFIDRGSI, the half-inhibitory concentration (IC50) is 17.7 µM with HLA-A*02:01 (setting [4]); at least 70 µM with HLA-A*02:06 (setting [4]); 2.1 µM with HLA-A*02:02 (setting [4]); 0.802 µM with HLA-A*02:03 (setting [4]); 0.181 µM with HLA-A*68:02 [2] (setting [4]).
